The text below walks through data of paper PMC12170172, “Initiation of ERAD by the bifunctional complex of Mnl1/Htm1 mannosidase and protein disulfide isomerase” (Nature Structural & Molecular Biology, 2025).

The assay deals with T1, Mnl1 (C644S)–FLAG (S. cerevisiae, UniProt P38888 21-796, C644S).
T1 construct: Mnl1 (Htm1) of S. cerevisiae with a substituted loop cysteine; source: S. cerevisiae, overexpressed together with Pdi1, purified as a complex (anti-FLAG M2 resin, Superdex 200); not shown: FLAG, C-terminal, kept
T1 sequence (looked up): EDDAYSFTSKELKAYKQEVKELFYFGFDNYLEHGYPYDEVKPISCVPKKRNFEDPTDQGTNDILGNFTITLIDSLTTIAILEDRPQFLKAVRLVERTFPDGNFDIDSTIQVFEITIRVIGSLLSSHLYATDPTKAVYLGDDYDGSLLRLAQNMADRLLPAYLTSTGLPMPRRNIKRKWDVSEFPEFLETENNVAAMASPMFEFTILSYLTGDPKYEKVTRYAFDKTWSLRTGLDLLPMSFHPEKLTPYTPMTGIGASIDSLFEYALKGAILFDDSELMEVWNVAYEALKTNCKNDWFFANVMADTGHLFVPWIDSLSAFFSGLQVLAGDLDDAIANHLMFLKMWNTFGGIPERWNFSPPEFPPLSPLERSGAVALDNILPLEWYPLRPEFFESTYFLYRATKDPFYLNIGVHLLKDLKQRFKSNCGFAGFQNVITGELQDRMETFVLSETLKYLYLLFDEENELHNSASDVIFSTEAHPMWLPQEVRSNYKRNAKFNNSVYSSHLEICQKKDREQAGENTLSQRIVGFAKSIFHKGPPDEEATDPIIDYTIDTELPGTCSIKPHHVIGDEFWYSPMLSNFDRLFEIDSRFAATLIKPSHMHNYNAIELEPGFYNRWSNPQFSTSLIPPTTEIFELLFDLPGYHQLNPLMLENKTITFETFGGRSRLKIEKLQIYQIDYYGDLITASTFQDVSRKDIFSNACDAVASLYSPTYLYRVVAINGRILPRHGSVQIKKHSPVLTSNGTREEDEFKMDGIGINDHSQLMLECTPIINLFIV
Description: cross-linking; purified complexes of Pdi1 with wild-type or mutant Mnl1 incubated with increasing concentrations of DPS (2,2′-dipyridyldisulfide) to induce disulfides; non-reducing SDS-PAGE, Coomassie blue. Conditions: both partners purified.

B1: Pdi1 (protein disulfide isomerase) (enzyme, S. cerevisiae, UniProt P17967 29-522, looked up)
chain: PEDSAVVKLATDSFNEYIQSHDLVLAEFFAPWCGHCKNMAPEYVKAAETLVEKNITLAQIDCTENQDLCMEHNIPGFPSLKIFKNSDVNNSIDYEGPRTAEAIVQFMIKQSQPAVAVVADLPAYLANETFVTPVIVQSGKIDADFNATFYSMANKHFNDYDFVSAENADDDFKLSIYLPSAMDEPVVYNGKKADIADADVFEKWLQVEALPYFGEIDGSVFAQYVESGLPLGYLFYNDEEELEEYKPLFTELAKKNRGLMNFVSIDARKFGRHAGNLNMKEQFPLFAIHDMTEDLKYGLPQLSEEAFDELSDKIVLESKAIESLVKDFLKGDASPIVKSQEIFENQDSSVFQLVGKNHDEIVNDPKKDVLVLYYAPWCGHCKRLAPTYQELADTYANATSDVLIAKLDHTENDVRGVVIEGYPTIVLYPGGKKSESVVYQGSRSLDSLFDFIKENGHFDVDGKALYEEAQEKAAEEADADAELADEEDAIHDEL
notes: Pdi1, protein disulfide isomerase of S. cerevisiae, untagged; Trx domains a, b, b′ and a′; amino acids 24–500 could be modelled; source: S. cerevisiae, overexpressed together with Mnl1–FLAG (GAL1 promoter), purified as a complex
Regarding B1, the binding result is recorded as “binds”.
